# Measurements: the Immune Epitope Database (IEDB)
# Experiments:
# Assay in all cases: IEDB peptide-MHC binding, purified MHC/competitive/radioactivity; ≥ and ≤ were set here for values at or beyond the usual limits of such assays
# Conditions in all cases: source organism: Bordetella pertussis
# HLA-B*35:01 = target: HLA-B*35:01
# HLA-A*02:01 = target: HLA-A*02:01
# HLA-B*07:02 = target: HLA-B*07:02
# HLA-B*53:01 = target: HLA-B*53:01
# HLA-B*57:01 = target: HLA-B*57:01
# HLA-B*44:03 = target: HLA-B*44:03
sequence,measurement,setting,value
AAGFDPEVQ,IC50,HLA-B*35:01,32.7 µM
ALMLACTGL,IC50,HLA-A*02:01,10.8 µM
APQAAPLSI,IC50,HLA-B*07:02,2.21 µM
same,IC50,HLA-B*53:01,42.4 µM
GLYQTYTEW,IC50,HLA-B*53:01,69.9 µM
same,IC50,HLA-B*57:01,41.4 µM
IESKISQSV,IC50,HLA-B*44:03,39.9 µM
ISVRVHVSK,IC50,HLA-B*57:01,2.74 µM
ITNKRAALI,IC50,HLA-B*57:01,40 µM
LAAIASAAH,IC50,HLA-B*35:01,49.8 µM
LAMPWTFHA,IC50,HLA-A*02:01,1.17 µM
LANDGTIVI,IC50,HLA-B*35:01,5.87 µM
LAPTVGVAF,IC50,HLA-B*35:01,7.6 µM
LAWALMLAC,IC50,HLA-B*53:01,6.64 µM
LLNAGGTLL,IC50,HLA-A*02:01,2.57 µM
QQVQVLQRQ,IC50,HLA-B*44:03,15.8 µM
SPRRARRAL,IC50,HLA-B*07:02,0.0138 µM
TFTGKVTNG,IC50,HLA-B*53:01,39.9 µM
TPFDIKLKE,IC50,HLA-B*53:01,34.7 µM
TPFIIKLKD,IC50,HLA-B*53:01,≥ 78.2 µM
VLAPRLYLT,IC50,HLA-A*02:01,7.98 µM
YQTYTEWSV,IC50,HLA-A*02:01,0.384 µM
YYDYEDATF,IC50,HLA-B*53:01,69.9 µM
